Experimental data: patent US20220098265A1 (MEDIMMUNE LIMITED, priority 2012, published 2022)
Read-outs that look alike come from different tables or passages of the source. Numbered stars: 1 amine (or outer) side, 2 acyl side, 3 side chain; on linkers, the order of the positions; unused ones are H or OH. Side chains are listed from the residue outwards. Ends that are not written are not given here. * marks the point of attachment. γGlu = O=C(O)[C@H](CCC(=O)[*:2])N[*:1]; Palmitoyl = CCCCCCCCCCCCCCCC(=O)*

Assays:
[1] = frozen blank plasma from rat; conditions: 37° C, up to 48 hours
[2] = frozen blank plasma from mouse; conditions: 37° C, up to 48 hours
human glucagon receptor [3] = biological target: T1, human glucagon receptor (human, UniProt P47871 26-477); assay: cell-based or functional assay
T1 sequence (P47871 26-477): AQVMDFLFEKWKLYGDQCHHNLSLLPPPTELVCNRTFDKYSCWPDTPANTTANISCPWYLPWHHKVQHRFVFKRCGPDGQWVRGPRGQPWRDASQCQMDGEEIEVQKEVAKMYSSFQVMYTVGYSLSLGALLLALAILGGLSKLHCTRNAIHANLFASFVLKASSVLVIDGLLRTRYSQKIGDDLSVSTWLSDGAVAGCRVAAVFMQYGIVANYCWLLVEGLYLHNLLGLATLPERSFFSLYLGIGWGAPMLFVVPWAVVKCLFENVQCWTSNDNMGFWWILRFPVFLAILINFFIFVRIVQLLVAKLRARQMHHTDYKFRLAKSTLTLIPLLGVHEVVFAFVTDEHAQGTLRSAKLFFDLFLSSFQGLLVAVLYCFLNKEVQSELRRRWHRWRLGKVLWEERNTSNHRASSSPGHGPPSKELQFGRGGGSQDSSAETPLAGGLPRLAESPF

rat glucagon receptor = rat glucagon receptor (rat, UniProt P30082 27-485); assay: cell-based or functional assay
Chain of rat glucagon receptor (P30082 27-485): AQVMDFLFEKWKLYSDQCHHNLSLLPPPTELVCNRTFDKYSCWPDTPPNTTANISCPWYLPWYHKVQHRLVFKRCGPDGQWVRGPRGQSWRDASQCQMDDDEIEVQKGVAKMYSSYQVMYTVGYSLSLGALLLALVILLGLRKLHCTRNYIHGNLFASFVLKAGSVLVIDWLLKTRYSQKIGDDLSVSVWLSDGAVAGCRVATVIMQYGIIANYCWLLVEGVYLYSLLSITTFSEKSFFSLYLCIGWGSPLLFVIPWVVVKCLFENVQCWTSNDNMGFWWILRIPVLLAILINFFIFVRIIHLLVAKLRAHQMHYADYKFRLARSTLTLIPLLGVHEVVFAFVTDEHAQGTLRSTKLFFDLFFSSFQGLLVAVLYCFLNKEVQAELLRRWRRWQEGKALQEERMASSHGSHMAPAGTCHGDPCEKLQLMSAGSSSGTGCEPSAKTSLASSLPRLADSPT

human GLP-1 receptor [4] = biological target: T2, human GLP-1 receptor (human, UniProt P43220 24-463); assay: cell-based or functional assay
rat GLP-1 receptor = biological target: T3, rat GLP-1 receptor (rat, UniProt P32301 22-463); assay: cell-based or functional assay
T3 sequence (looked up): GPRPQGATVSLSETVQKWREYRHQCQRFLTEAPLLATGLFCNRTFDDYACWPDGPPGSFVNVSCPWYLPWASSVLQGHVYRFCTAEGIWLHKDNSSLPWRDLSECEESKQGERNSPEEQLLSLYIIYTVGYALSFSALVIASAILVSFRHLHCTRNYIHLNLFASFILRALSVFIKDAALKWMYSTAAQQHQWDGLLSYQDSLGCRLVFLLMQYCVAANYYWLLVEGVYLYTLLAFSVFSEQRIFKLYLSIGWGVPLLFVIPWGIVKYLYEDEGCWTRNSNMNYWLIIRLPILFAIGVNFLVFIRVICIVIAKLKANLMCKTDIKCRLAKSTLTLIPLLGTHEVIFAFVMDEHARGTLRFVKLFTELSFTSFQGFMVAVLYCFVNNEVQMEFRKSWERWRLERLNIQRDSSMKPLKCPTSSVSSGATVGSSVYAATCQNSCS

mouse glucagon receptor = mouse glucagon receptor (mouse, UniProt Q61606 27-485); assay: cell-based or functional assay
Chain of mouse glucagon receptor (Q61606 27-485): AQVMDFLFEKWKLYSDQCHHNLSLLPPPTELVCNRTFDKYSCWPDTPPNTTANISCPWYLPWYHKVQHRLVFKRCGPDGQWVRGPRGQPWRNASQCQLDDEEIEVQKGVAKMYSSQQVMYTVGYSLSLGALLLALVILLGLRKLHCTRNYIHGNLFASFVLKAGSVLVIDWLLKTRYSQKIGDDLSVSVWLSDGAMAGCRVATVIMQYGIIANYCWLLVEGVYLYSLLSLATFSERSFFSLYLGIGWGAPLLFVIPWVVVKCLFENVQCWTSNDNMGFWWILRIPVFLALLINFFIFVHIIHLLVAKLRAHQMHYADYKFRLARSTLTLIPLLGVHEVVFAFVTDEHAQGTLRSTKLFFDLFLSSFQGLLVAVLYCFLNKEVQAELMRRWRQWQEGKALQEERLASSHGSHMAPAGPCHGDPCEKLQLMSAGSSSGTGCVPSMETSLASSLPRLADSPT

mouse GLP-1 receptor = biological target: T4, mouse GLP-1 receptor (mouse, UniProt O35659 22-463); assay: cell-based or functional assay
T4 sequence (looked up): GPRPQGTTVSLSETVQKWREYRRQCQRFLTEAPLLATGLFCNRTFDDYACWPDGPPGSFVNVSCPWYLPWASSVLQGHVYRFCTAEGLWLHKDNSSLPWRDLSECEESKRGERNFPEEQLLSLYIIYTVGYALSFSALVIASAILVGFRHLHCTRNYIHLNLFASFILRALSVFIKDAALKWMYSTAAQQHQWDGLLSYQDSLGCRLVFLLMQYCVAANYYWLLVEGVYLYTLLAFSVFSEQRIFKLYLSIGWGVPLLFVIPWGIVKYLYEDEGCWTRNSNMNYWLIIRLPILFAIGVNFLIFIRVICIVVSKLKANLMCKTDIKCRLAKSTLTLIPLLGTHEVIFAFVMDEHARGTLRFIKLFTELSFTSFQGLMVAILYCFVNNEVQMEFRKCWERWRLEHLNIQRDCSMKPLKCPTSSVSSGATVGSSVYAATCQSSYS

[5] = biological target: T5, human glucose-dependent insulinotropic peptide (gastric inhibitory polypeptide) receptor (human, UniProt P48546 22-466); assay: cell-based or functional assay
T5 sequence (looked up): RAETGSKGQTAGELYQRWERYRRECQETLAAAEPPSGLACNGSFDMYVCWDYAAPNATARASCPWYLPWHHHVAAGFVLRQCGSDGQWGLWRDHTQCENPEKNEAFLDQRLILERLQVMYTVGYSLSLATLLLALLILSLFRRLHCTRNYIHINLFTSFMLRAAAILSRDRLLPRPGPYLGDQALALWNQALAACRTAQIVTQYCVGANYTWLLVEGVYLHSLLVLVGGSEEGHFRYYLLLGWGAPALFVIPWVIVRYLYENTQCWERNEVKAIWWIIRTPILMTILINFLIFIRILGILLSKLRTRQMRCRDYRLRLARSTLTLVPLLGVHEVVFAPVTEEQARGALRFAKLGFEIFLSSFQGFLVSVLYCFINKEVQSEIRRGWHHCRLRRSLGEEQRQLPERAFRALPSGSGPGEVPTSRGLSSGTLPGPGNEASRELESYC

human glucagon receptor [6] = biological target: T1, human glucagon receptor; assay: cell-based or functional assay; remark: listed apart in the source
human GLP-1 receptor [7] = biological target: T2, human GLP-1 receptor; assay: cell-based or functional assay; remark: listed apart in the source
human GLP-1 receptor [8] = biological target: T2, human GLP-1 receptor; assay: cell-based or functional assay; remark: listed apart in the source
human serum albumin = human serum albumin (Homo sapiens, UniProt P02768); assay: calculated from the variation in cAMP generation with the HSA concentration (assay 2)
Chain of human serum albumin (P02768 25-609 limits assumed): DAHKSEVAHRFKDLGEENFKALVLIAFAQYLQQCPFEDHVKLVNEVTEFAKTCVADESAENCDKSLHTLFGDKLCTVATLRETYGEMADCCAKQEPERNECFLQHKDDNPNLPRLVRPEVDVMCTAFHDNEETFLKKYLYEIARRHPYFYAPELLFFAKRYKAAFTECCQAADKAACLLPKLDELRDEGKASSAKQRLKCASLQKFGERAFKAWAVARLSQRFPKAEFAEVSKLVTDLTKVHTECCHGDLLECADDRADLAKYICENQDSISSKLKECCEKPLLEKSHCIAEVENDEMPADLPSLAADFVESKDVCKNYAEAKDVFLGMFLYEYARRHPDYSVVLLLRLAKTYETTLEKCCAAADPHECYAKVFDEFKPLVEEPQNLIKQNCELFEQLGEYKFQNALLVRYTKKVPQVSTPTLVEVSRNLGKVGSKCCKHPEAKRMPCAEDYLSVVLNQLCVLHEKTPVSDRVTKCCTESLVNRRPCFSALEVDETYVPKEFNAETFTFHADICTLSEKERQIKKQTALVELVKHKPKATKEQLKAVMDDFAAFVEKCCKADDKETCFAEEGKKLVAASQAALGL

[9] = biological target: T5, human glucose-dependent insulinotropic …; assay: cell-based or functional assay; remark: listed apart in the source
human glucagon receptor [10] = biological target: T1, human glucagon receptor; assay: cell-based or functional assay; remark: listed apart in the source
human GLP-1 receptor [11] = biological target: T2, human GLP-1 receptor; assay: cell-based or functional assay; remark: listed apart in the source

HSQGTFTSDYSKXLDSERARDFVAWLVAGG-amide X13 = K(gE-palm)
fragment found [1]: DPP IV-cleavage product | fragment found [2]: DPP IV-cleavage product

B1: G730 (peptide)
peptide: HSQGTFTSDYSKKLDSERARDFVAWLVAGG
modifications: X13 = K(gE-palm) (Lys with palmitoyl on the epsilon nitrogen through a gamma glutamic acid linker); C-terminal amide
cAMP EC50 (assay 2, 4.4% human serum albumin) (human glucagon receptor [3]): 0.402 nM | cAMP EC50 (assay 2, 3.2% rat serum albumin) (rat glucagon receptor): 45.1 nM | cAMP EC50 (assay 2, 4.4% human serum albumin) (human GLP-1 receptor [4]): 0.455 nM | cAMP EC50 (assay 2, 3.2% rat serum albumin) (rat GLP-1 receptor): 0.081 nM | cAMP EC50 (assay 2, 3.2% mouse serum albumin) (mouse glucagon receptor): 5.46 nM | cAMP EC50 (assay 2, 3.2% mouse serum albumin) (mouse GLP-1 receptor): 1.1 nM | cAMP EC50 (assay 1) [5]: 45 nM | cAMP EC50 (assay 1) (human glucagon receptor [6]): 0.00623 nM | cAMP EC50 (assay 1) (human GLP-1 receptor [7]): 0.018 nM | EC50 at the GLP1R at 0% HSA (calculated from cAMP generation against HSA concentration) (human GLP-1 receptor [8]): 0.007 nM | free peptide at 4.4% HSA (human serum albumin): 0.85% | cAMP EC50 (assay 1) [9]: 56.6 nM | cAMP EC50 (assay 1) (human glucagon receptor [10]): 0.015 nM | cAMP EC50 (assay 1) (human GLP-1 receptor [11]): 0.0395 nM
